Tests used:
[1] = molecular target: T1, recombinant SUDV Boniface 1976 NP (Sudan ebolavirus, Boniface 1976, UniProt Q9QP77); assay: far-Western, overlay or dot blot; settings: both partners purified
T1 construct: also called SUDV NP; full-length NP polymers

[2] = molecular target: T2, recombinant TAFV IC1 1994 NP (Tai Forest ebolavirus (TAFV)., UniProt B8XCN6); assay: far-Western, overlay or dot blot; settings: both partners purified
T2 construct: also called TAFV NP

recombinant BDBV 2007 NP [3] = molecular target: T3, recombinant BDBV 2007 NP (Bundibugyo ebolavirus (BDBV)., UniProt B8XCM7); assay: far-Western, overlay or dot blot; settings: both partners purified
T3 construct: also called BDBV NP

[4] = molecular target: T4, nluc-NP612 fusion protein, SUDV (Sudan ebolavirus, Boniface 1976 …, UniProt Q9QP77); assay: far-Western, overlay or dot blot; settings: both partners purified
T4 construct: also called SUDV NP612 C-terminus; source: E. coli BL21(DE3)+pRARE, cytosolic, purified (IMAC, SEC)

[5] = molecular target: T5, nluc-NP612 fusion protein, RESTV (Reston ebolavirus, Reston 1989 (isolate …, UniProt Q8JPY1)); assay: far-Western, overlay or dot blot; settings: both partners purified
T5 construct: also called RESTV NP612 C-terminus; source: E. coli BL21(DE3)+pRARE, cytosolic, purified (IMAC, SEC)

[6] = molecular target: T6, nluc-NP612 fusion protein, TAFV (Tai Forest ebolavirus, IC1 1994, UniProt B8XCN6); assay: far-Western, overlay or dot blot; settings: both partners purified
T6 construct: also called TAFV C-terminus; source: E. coli BL21(DE3)+pRARE, cytosolic, purified (IMAC, SEC)

[7] = molecular target: T7, nluc-NP612 fusion protein, BDBV (Bundibugyo ebolavirus, Uganda 2007, UniProt B8XCM7); assay: far-Western, overlay or dot blot; settings: both partners purified
T7 construct: also called BDBV NP612 C-terminus; source: E. coli BL21(DE3)+pRARE, cytosolic, purified (IMAC, SEC)

[8] = molecular target: T8, NP of SUDV Boniface 1976 in live virus preparation (Sudan ebolavirus, Boniface 1976, UniProt Q9QP77); assay: ELISA; settings: one partner purified
T8 construct: also called SUDV (virus)

[9] = molecular target: T9, NP of TAFV IC1 1994 in live virus preparation (Tai Forest ebolavirus (TAFV)., UniProt B8XCN6); assay: ELISA; settings: one partner purified
T9 construct: also called TAFV (virus)

[10] = molecular target: T1, recombinant SUDV Boniface 1976 NP; assay: ELISA; settings: both partners purified
[11] = molecular target: T2, recombinant TAFV IC1 1994 NP; assay: ELISA; settings: both partners purified
recombinant BDBV 2007 NP [12] = molecular target: T3, recombinant BDBV 2007 NP; assay: ELISA; settings: both partners purified
[13] = molecular target: T4, nluc-NP612 fusion protein, SUDV; assay: ELISA; settings: both partners purified
[14] = molecular target: T5, nluc-NP612 fusion protein, RESTV; assay: ELISA; settings: both partners purified
[15] = molecular target: T6, nluc-NP612 fusion protein, TAFV; assay: ELISA; settings: both partners purified
[16] = molecular target: T7, nluc-NP612 fusion protein, BDBV; assay: ELISA; settings: both partners purified

Measured: binding result

B1: sdAb ZE alkaline phosphatase fusion (VHH)
VHH: QVQLQESGGGLVQPGGSLRLSCTASGFTLAEYGVGWFRQAPGKERELVALIAVGGTTHSIDSVKGRFTISRDNMKNTVYLQMNSLNVEDTAVYYCNAYSSAYDRNYWGQGTQVTVSS
notes: also called sdAb-AP fusion of ZE; source: previously generated [9], stored at -80 °C
binds: [1] | [2] | recombinant BDBV 2007 NP [3] | [4] | [5] | [6] | [7]

B2: sdAb ZE, biotinylated (from pecan126) (VHH)
VHH: B1 VHH
notes: also called anti-Ebola virus sdAb; oriented sdAb captor; source: E. coli HBV88, pecan126 preparations
binds: [8] | [9] | [10] | [11] | recombinant BDBV 2007 NP [12] | [13] | [14] | [15] | [16]
